Test results from IntAct's records for PubMed 31000591.

B1: T-lymphocyte activation antigen CD80 (Mus musculus), Q00609 (parent)
chain: MACNCQLMQDTPLLKFPCPRLILLFVLLIRLSQVSSDVDEQLSKSVKDKVLLPCRYNSPHEDESEDRIYWQKHDKVVLSVIAGKLKVWPEYKNRTLYDNTTYSLIILGLVLSDRGTYSCVVQKKERGTYEVKHLALVKLSIKADFSTPNITESGNPSADTKRITCFASGGFPKPRFSWLENGRELPGINTTISQDPESELYTISSQLDFNTTRNHTIKCLIKYGDAHVSEDFTWEKPPEDPPDSKNTLVLFGAGFGAVITVVVIVVIIKCFCKHRSCFRRNEASRETNNSLTFGPEEALAEQTVFL

Variants of: B1
Details: with pd1l1_mouse Cd274, Q9EP73
Sequence of pd1l1_mouse Cd274, Q9EP73 (Q9EP73 whole entry): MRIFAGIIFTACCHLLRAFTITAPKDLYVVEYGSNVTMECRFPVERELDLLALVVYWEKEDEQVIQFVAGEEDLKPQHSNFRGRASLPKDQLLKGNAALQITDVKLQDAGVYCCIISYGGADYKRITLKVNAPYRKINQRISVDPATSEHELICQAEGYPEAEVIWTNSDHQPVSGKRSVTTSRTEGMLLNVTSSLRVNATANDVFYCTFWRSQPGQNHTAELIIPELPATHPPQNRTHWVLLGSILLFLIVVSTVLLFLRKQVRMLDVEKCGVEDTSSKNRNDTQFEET

Row | Variant | effect of a mutation on the interaction
1 | MACNCQLMQDTPLLKFPCPRLILLFVLLIRLSQVSSDVDEQLSKSVKDKVLLPCRYNSPHEDESEDRIYWQKHDKVVLSVIAGKLKVWPEYKNRTLYDNTTYSLIIEGLVLSDRGTYSCVVQKKERGTYEVKHLALVKLSIKADFSTPNITESGNPSADTKRITCFASGGFPKPRFSWLENGRELPGINTTISQDPESELYTISSQLDFNTTRNHTIKCLIKYGDAHVSEDFTWEKPPEDPPDSKNTLVLFGAGFGAVITVVVIVVIIKCFCKHRSCFRRNEASRETNNSLTFGPEEALAEQTVFL [L107E] | disrupting interaction strength
